Assay results taken from US20030105008A1 (BRIGHAM AND WOMEN S HOSPITAL, published 2003).

T1: ORC2+3 core complex (human, UniProt Q13416 1-577; Q9UBD5 1-711)
T1 construct: Untagged ORC2 and ORC3 co-expressed in Sf9 cells with a GST-tagged third subunit; also called ORC2+3 subcomplex; ORC2-3 complex
T1 sequence (looked up) 1: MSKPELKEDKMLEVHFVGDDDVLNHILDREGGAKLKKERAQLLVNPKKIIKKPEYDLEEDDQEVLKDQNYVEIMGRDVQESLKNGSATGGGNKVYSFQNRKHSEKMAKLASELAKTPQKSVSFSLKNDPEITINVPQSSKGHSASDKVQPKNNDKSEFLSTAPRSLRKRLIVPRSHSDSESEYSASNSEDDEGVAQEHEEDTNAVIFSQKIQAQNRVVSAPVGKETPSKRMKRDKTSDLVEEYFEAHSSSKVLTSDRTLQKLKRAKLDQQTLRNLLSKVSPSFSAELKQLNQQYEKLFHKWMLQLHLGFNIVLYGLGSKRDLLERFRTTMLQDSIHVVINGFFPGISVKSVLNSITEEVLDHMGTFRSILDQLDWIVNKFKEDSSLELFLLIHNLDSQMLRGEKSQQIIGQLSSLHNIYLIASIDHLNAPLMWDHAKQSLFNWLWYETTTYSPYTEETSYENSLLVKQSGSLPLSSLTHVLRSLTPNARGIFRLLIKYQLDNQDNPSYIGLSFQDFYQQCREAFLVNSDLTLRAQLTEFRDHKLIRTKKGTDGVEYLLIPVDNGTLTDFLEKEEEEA
T1 sequence (looked up) 2: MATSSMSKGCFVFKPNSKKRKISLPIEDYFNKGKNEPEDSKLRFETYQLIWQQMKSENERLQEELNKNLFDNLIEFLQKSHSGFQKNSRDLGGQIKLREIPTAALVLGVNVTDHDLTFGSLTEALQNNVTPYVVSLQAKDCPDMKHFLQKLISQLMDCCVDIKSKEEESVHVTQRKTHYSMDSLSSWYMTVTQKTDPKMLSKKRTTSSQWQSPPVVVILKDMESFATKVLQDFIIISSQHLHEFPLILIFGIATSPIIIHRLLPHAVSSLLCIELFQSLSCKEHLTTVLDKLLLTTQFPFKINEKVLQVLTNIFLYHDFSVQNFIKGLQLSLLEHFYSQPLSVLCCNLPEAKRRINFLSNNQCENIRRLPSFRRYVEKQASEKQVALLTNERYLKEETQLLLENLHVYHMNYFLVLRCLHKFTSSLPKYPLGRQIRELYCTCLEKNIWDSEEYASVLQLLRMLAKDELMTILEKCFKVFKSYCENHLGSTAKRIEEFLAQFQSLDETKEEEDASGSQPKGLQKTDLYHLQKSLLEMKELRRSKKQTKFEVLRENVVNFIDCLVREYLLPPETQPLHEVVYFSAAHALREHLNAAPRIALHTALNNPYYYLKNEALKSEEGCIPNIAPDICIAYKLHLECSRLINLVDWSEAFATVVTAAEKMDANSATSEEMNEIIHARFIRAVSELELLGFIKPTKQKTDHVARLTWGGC

T2: GSTORC2 (GST fused to full-length human ORC2) (human, UniProt Q13416 1-577)
T2 construct: domain: full-length; also called GSTO2; not shown: GST tag of pFB-GST (baculovirus) or pGEX-5X-3 (bacterial)
T2 sequence (looked up): T1 sequence (looked up) 1

B1: GSTORC5 (GST fused to human ORC5) (other, UniProt O43913 1-435, looked up)
chain: MPHLENVVLCRESQVSILQSLFGERHHFSFPSIFIYGHTASGKTYVTQTLLKTLELPHVFVNCVECFTLRLLLEQILNKLNHLSSSEDGCSTEITCETFNDFVRLFKQVTTAENLKDQTVYIVLDKAEYLRDMEANLLPGFLRLQELADRNVTVLFLSEIVWEKFRPNTGCFEPFVLYFPDYSIGNLQKILSHDHPPEYSADFYAAYINILLGVFYTVCRDLKELRHLAVLNFPKYCEPVVKGEASERDTRKLWRNIEPHLKKAMQTVYLREISSSQWEKLQKDDTDPGQLKGLSAHTHVELPYYSKFILIAAYLASYNPARTDKRFFLKHHGKIKKTNFLKKHEKTSNHLLGPKPFPLDRLLAILYSIVDSRVAPTANIFSQITSLVTLQLLTLVGHDDQLDGPKYKCTVSLDFIRAIARTVNFDIIKYLYDFL
notes: Baculovirus-expressed; not shown: GST tag of the pFB-GST vector
B2: GSTORC4 (GST fused to human ORC4) (other, UniProt O43929 1-436, looked up)
chain: MSSRKSKSNSLIHTECLSQVQRILRERFCRQSPHSNLFGVQVQYKHLSELLKRTALHGESNSVLIIGPRGSGKTMLINHALKELMEIEEVSENVLQVHLNGLLQINDKIALKEITRQLNLENVVGDKVFGSFAENLSFLLEALKKGDRTSSCPVIFILDEFDLFAHHKNQTLLYNLFDISQSAQTPIAVIGLTCRLDILELLEKRVKSRFSHRQIHLMNSFGFPQYVKIFKEQLSLPAEFPDKVFAEKWNENVQYLSEDRSVQEVLQKHFNISKNLRSLHMLLMLALNRVTASHPFMTAVDLMEASQLCSMDSKANIVHGLSVLEICLIIAMKHLNDIYEEEPFNFQMVYNEFQKFVQRKAHSVYNFEKPVVMKAFEHLQQLELIKPMERTSGNSQREYQLMKLLLDNTQIMNALQKYPNCPTDVRQWATSSLSWL
notes: as for B1
B3: ORC3N (ORC3N200), N-terminal 200 amino acids of human ORC3 (other)
chain: MATSSMSKGCFVFKPNSKKRKISLPIEDYFNKGKNEPEDSKLRFETYQLIWQQMKSENERLQEELNKNLFDNLIEFLQKSHSGFQKNSRDLGGQIKLREIPTAALVLGVNVTDHDLTFGSLTEALQNNVTPYVVSLQAKDCPDMKHFLQKLISQLMDCCVDIKSKEEESVHVTQRKTHYSMDSLSSWYMTVTQKTDPKML
notes: also called construct 3
B4: human ORC6, untagged (other, UniProt Q9Y5N6 1-252, looked up)
chain: MGSELIGRLAPRLGLAEPDMLRKAEEYLRLSRVKCVGLSARTTETSSAVMCLDLAASWMKCPLDRAYLIKLSGLNKETYQSCLKSFECLLGLNSNIGIRDLAVQFSCIEAVNMASKILKSYESSLPQTQQVDLDLSRPLFTSAALLSACKILKLKVDKNKMVATSGVKKAIFDRLCKQLEKIGQQVDREPGDVATPPRKRKKIVVEAPAKEMEKVEEMPHKPQKDEDLTQDYEEWKRKILENAASAQKATAE

Key:
[1] = biological target: T1, ORC2+3 core complex; test: co-expression of GSTORC5, ORC2 and ORC3 in Sf9 cells, glutathione beads, immunoblot
Description: (§1) Cells were harvested 48 hours post-infection. The cell pellet was washed once in cold phosphate buffered saline (PBS), and subsequently resuspended in hypotonic lysis buffer (10 mM Tris.Cl, pH 7.9; 10 mM KCl; 1.5 mM MgCl₂; 1 mM Phenylmethylsulfonyl Fluoride (PMSF); 2 μg/ml pepstatin; 2 μg/ml leupeptin; 5 μg/ml aprotinin; 1 mM DTT). The cell suspension was homogenized in a Dounce homogenizer using a B-type pestle followed by centrifugation at 3000 rpm for 7 min. The pellet containing the nuclei was lysed in buffer H/0.15 (50 mM HEPES.KOH, pH 7.5; 150 mM KCl; 0.02% NP-40; 5 mM Magnesium acetate; 1 mM EDTA; 1 mM EGTA; 10% glycerol, 1 mM PMSF, 2 μg/ml pepstatin, 2 μg/ml leupeptin, 5 μg/ml aprotinin, 1 mM DTT). The resulting suspension was subjected to ammonium sulfate precipitation (starting with 10% followed by 30% and finally 50%). The pellet following 50% ammonium sulfate cut was resuspended in buffer H/0.0 (no salt) and then dialyzed overnight against buffer H/0.15. […] Proteins were eluted using reduced glutathione elution buffer (50 Mm Tris.Cl, pH 8.0; 20 mM reduced glutathione; 0.01% NP-40; 100 mM NaCl). Gel filtration of glutathione eluate using fast protein liquid chromatography Superose 12 (Amersham Pharmacia Biotech Inc, Piscataway, N.J.) column was performed as described previously (Dhar, S. K. & Dutta, A. J Biol Chem 275:34983-8, 2000).

[2] = biological target: T3, ORC2, ORC3 and ORC4 co-expressed with GSTORC5 (human, UniProt Q13416 1-577; Q9UBD5 1-711; O43929 1-436); test: GST pull-down on glutathione beads from Sf9 cells expressing human ORC1-6 with ORC5 GST tagged; immunoblot
T3 construct: The set of untagged subunits that come down with GSTORC5; written as one partner because the pairwise tests of GSTORC5 with each of them were negative; also called ORC2, 3 and 4
Description: as §1, with “The” for “Cells were harvested 48 hours post-infection. The cell pellet was washed once in cold phosphate buffered saline (PBS), and subsequently resuspended in hypotonic lysis buffer (10 mM Tris.Cl, pH 7.9; 10 mM KCl; 1.5 mM MgCl₂; 1 mM Phenylmethylsulfonyl Fluoride (PMSF); 2 μg/ml pepstatin; 2 μg/ml leupeptin; 5 μg/ml aprotinin; 1 mM DTT). The”
(§2) To purify recombinant six protein human origin recognition complex, Sf9 insect cells were infected with baculoviruses expressing human ORC1-6 subunits.

[3] = biological target: T1, ORC2+3 core complex; test: co-expression of GSTORC4, ORC2 and ORC3 in Sf9 cells, glutathione beads, immunoblot
Description: as §1

[4] = biological target: T2, GSTORC2 (GST fused to full-length human …); test: GST pull-down of 35S-labelled in vitro translated ORC3N on bacterially expressed GSTORC2
Source text: (§3) Pull-down assays on glutathione agarose beads were done as described in (Lin, Y. L., et al., J Biol Chem 271:17190-8, 1996).

[5] = biological target: B1; test: glutathione beads from Sf9 cells co-expressing GSTORC5, ORC2, ORC4 and ORC3N; western blot
Description: as §1, with “The” for “Cells were harvested 48 hours post-infection. The cell pellet was washed once in cold phosphate buffered saline (PBS), and subsequently resuspended in hypotonic lysis buffer (10 mM Tris.Cl, pH 7.9; 10 mM KCl; 1.5 mM MgCl₂; 1 mM Phenylmethylsulfonyl Fluoride (PMSF); 2 μg/ml pepstatin; 2 μg/ml leupeptin; 5 μg/ml aprotinin; 1 mM DTT). The”

[6] = biological target: T4, GST (glutathione S transferase), control protein (UniProt P08515 1-218 = GST); test: GST pull-down of 35S-labelled in vitro translated ORC3N (control of the GSTORC2C experiment)
T4 construct: Negative control in the pull-downs; also called control GST
Source text: as §3

[7] = biological target: T5, complex of GSTORC5, ORC2, ORC3 and ORC4 (human, UniProt O43913 1-435; Q13416 1-577; Q9UBD5 1-711; O43929 1-436); test: GST pull-down on glutathione beads from Sf9 cells expressing human ORC1-6 with ORC5 GST tagged; immunoblot
T5 construct: Complex purified on glutathione beads from Sf9 cells; also called GSTORC5, 2, 3 and 4; ORC2, 3, 4 and 5 core complex; not shown: GST tag of the pFB-GST vector
Description: as §1, with “The” for “Cells were harvested 48 hours post-infection. The cell pellet was washed once in cold phosphate buffered saline (PBS), and subsequently resuspended in hypotonic lysis buffer (10 mM Tris.Cl, pH 7.9; 10 mM KCl; 1.5 mM MgCl₂; 1 mM Phenylmethylsulfonyl Fluoride (PMSF); 2 μg/ml pepstatin; 2 μg/ml leupeptin; 5 μg/ml aprotinin; 1 mM DTT). The”
as §2

T4 sequence (P08515 whole entry): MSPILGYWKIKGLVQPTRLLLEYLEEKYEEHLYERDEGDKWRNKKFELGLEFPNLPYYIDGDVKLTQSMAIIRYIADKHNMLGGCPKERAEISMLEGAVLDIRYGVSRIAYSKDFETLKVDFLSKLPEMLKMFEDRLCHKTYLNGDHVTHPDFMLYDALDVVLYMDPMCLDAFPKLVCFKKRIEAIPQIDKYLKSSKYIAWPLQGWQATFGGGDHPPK

B1
binding result [1]: binds
binding result [2]: binds

B2
binding result [3]: no binding

B3
binding result [4]: binds
binding result [5]: no binding
binding result [6]: no binding

B4
binding result [7]: no binding
